Results on one molecule are retold here after paper PMC7729032, “Interaction interface in the C-terminal parts of centriole proteins Sas6 and Ana2” (Open Biology, 2020).

For the test, the target named is T1, MBP-Sas6 wild-type (Drosophila, UniProt Q9VAC8 1-472).
T1 construct: Sas6, Drosophila, wild type; MBP from destination vector pKM596 (Gateway); No cleavage of MBP is described; also called Sas6-wt; source: E. coli Rosetta(DE3); in lysate (pull-down); purified on amylose resin and SEC (SEC, HDX-MS)
T1 sequence (looked up): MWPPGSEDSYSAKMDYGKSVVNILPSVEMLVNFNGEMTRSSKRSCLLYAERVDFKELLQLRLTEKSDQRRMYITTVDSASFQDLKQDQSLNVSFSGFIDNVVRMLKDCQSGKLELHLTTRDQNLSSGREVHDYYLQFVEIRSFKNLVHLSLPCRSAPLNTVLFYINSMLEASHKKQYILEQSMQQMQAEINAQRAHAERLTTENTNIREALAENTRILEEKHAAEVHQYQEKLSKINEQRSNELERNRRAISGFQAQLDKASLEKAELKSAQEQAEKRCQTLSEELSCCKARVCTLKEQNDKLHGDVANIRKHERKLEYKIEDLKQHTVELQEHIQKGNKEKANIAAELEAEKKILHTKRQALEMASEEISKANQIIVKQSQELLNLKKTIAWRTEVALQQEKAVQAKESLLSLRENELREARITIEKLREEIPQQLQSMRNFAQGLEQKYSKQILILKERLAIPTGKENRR
Put plainly: SEC; MBP-Ana2-4D mixed with MBP-Sas6, at least 1 h on ice, Superdex 200 10/300; 20 mM Tris–HCl pH 7.5, 150 mM NaCl, 1 mM DTT, 4°C. As to conditions: both partners purified. For orientation: In gel filtration, larger molecules generally elute earlier.

B1: MBP-Ana2-4D (natural protein, Drosophila, UniProt Q9XZ31 1-420, looked up)
chain: MFVPETEDMLPRLAPRPSAAVPMGHTNEIIGPTVPEVSILFGQPPQDPQMQPQQPNHAHQESSPRAAPTFASWKKQMLPRVNFSPILATELGPRTAPSSNSPCSSKEYQVMPRDRNYASDAQQTTNHMNCNAGGYNAEPKQQAYQSRRLSSSSNADVLTICAGTQTDPFNPSPPRKSLPQVVYSDIDVSNLANKSDLAALVSLVESVRHEQQQLRNLCEMILEQQQRAKPEAISKASSTTGTQCDILTTNQAGRRLSPIMQDYIAEEEEPLPPPQARVIPQFPSPRPHPPIAQSTGYRANTPQAKRIPQLAKPNTEKDMVMNELALKYLRQPVDELMKDMRLGASPKSPNPEPLRPIDNIGHAQDPNDIDNADYKYLKKYRLLPEEQLEPVCPQSPMAATAPSPHIQLDLENIRNQPKLL
notes: Ana2, Drosophila; STAN motif serines 318, 365, 370 and 373 substituted by aspartic acid; MBP from destination vector pKM596; As prey against Gorab bait the MBP tag follows from the general methods of the pull-down; also called Ana2-4D-FL; source: E. coli Rosetta(DE3); purified on amylose resin and SEC (SEC, HDX-MS); in lysate (pull-down prey)
On to B1, for which the binding result is reported as “binds”.
